# Results taken from the RNAGym collection of RNA variant scans (doi:10.7554/elife.80360).
# B1: HDV Ribozyme (parent)
# chain: GGCCGGCAUGGUCCCAGCCUCCUCGCUGGCGCCGGCUGGGCAACAUUCCGAGGGGACCGUCCCCUCGGUAAUGGCGAAUGGGACCCA
# Variants of: B1
# Experiment: self-cleavage, relative activity (ratio to wild type); higher = more cleavage; co-transcriptional
row,Variant,self-cleavage
1,GGCCGGUAUGGUCCCAGCCUCCUCGCUGGCGCCGGCUGGGCAACAUUCCGAGGGGACCGUCCCCUCGGUAAUCGCGAAUGGGACCCA,0.224
2,GGCCGGUAUGGUCCCAGCCUCCUCGCUGGCGCCGGCUGGGCAACAUUCCGAGGGGACCGUCCCCUCGGUAAUAGCGAAUGGGACCCA,0.424
3,GGCCGGUAUGGUCCCAGCCUCCUCGCUGGCGCCGGCUGGGCAACAUUCCGAGGGGACCGUCCCCUCGGUAAUUGCGAAUGGGACCCA,0.277
4,GGCCGGUAUGGUCCCAGCCUCCUCGCUGGCGCCGGCUGGACAACAUUCCGAGGGGACCGUCCCCUCGGUAAUGGCGAAUGGGACCCA,0.752
5,GGCCGGUAUGGUCCCAGCCUCCUCGCUGGCGCCGGCUGGCCAACAUUCCGAGGGGACCGUCCCCUCGGUAAUGGCGAAUGGGACCCA,0.166
6,GGCCGGUAUGGUCCCAGCCUCCUCGCUGGCGCCGGCUGUGCAACAUUCCGAGGGGACCGUCCCCUCGGUAAUGGCGAAUGGGACCCA,0.289
7,GGCCGGUAUGGUCCCAGCCUCCUCGCUGGCGCCGGCUGAGCAACAUUCCGAGGGGACCGUCCCCUCGGUAAUGGCGAAUGGGACCCA,0.3
8,GGCCGGUAUGGUCCCAGCCUCCUCGCUGGCGCCGGCUGGGCAACAUUCCGAGGGGACCGUCCCCUCGGUAAUGGCGAAUAGGACCCA,0.164
9,GGCCGGUAUGGUCCCAGCCUCCUCGCUGGCGCCGGCUGGGCAACAUUCCGAGGGGACCGUCCCCUCGGUAAUGGCGAAUCGGACCCA,0.0773
10,GGCCGGUAUGGUCCCAGCCUCCUCGCUGGCGCCGGCUGGGCAACAUUCCGAGGGGACCGUCCCCUCGGUAAUGCCGAAUGGGACCCA,0.325
11,GGCCGGUAUGGUCCCAGCCUCCUCGCUGGCGCCGGCUGGGCAACAUUCCGAGGGGACCGUCCCCUCGGUAAUGGCCAAUGGGACCCA,0.815
12,GGCCGGUAUGGUCCCAGCCUCCUCGCUGGCGCCGGCUGGGCAACAUUCCGAGGAGACCGUCCCCUCGGUAAUGGCGAAUGGGACCCA,0.787
13,GGCCGGUAUGGUCCCAGCCUCCUCGCUGGCGCCGGCUGGGCAACAUUCCGAUGGGACCGUCCCCUCGGUAAUGGCGAAUGGGACCCA,0.562
14,GGCCGGUAUGGUCCCAGCCUCCUCGCUGGCGCCGGCUGGGCAACAUUCCGACGGGACCGUCCCCUCGGUAAUGGCGAAUGGGACCCA,0.849
15,GGCCGGUAUGGUCCCAGCCUCCUCGCUGGCGCCGGCUGGGCAACAUUCCGAGGGUACCGUCCCCUCGGUAAUGGCGAAUGGGACCCA,0.815
16,GGCCGGUACGGUCCCAGCCUCCUCGCUGGCGCCGGCUGGGCAACAUUCCGAGGGGACCGUCCCCUCGGUAAUGGCGAAUGGGACCCA,1.02

row,Variant,self-cleavage
1,GGCCGGUAUGGUCCCAGCCUCCUCGCUGGCGCCGGCUGGGCAACAUUCCGAGGGGACCGUCCCCUCGCUAAUGGCGAAUGGGACCCA,0.704
2,GGCCGGUAUGGUCCCAGCCUCCUCGCUGGCGCCGGCUGGGCAACAUUCCGAGGGGACCGUCCCCUCGAUAAUGGCGAAUGGGACCCA,0.969
3,GGCCGGUAUGGUCCCAGCCUCCUCGCCGGCGCCGGCUGGGCAACAUUCCGAGGGGACCGUCCCCUCGGUAAUGGCGAAUGGGACCCA,0.404
4,GGCCGGUAUGGUCCCAGCCUCCUCGCAGGCGCCGGCUGGGCAACAUUCCGAGGGGACCGUCCCCUCGGUAAUGGCGAAUGGGACCCA,0.519
5,GGCCGGUAUGGUCCCAGCCUCCUCGCUGGCGCCGGCUGGGCAACAUUCCCAGGGGACCGUCCCCUCGGUAAUGGCGAAUGGGACCCA,0.689
6,GGCCGGUAUGGUCCCAGCCUCCUCGCUGGCGCCGGCAGGGCAACAUUCCGAGGGGACCGUCCCCUCGGUAAUGGCGAAUGGGACCCA,0.0739
7,GGCCGGUAUGGUCCCAGCCACCUCGCUGGCGCCGGCUGGGCAACAUUCCGAGGGGACCGUCCCCUCGGUAAUGGCGAAUGGGACCCA,0.0594
8,GGCCGGUAUGGUCCCAGCCCCCUCGCUGGCGCCGGCUGGGCAACAUUCCGAGGGGACCGUCCCCUCGGUAAUGGCGAAUGGGACCCA,0
9,GGCCGGUAUGGUCCCAGCCGCCUCGCUGGCGCCGGCUGGGCAACAUUCCGAGGGGACCGUCCCCUCGGUAAUGGCGAAUGGGACCCA,0.133
10,GGCCGGUAUGGUCCCAGCCUCCUCGCUGGCGCCGGCUGGGCAACAUUCCGAGGGGACCGUCCCCUCGGUAAUGGCGAAUGGAACCCA,0.251
11,GGCCGGUAUGGUCCCAGCCUCCUCGCUGGCGCCGGCUGGGCAACAUUCCGAGGGGACCGUCCCCUCGGUAAUGGCGAAUGGUACCCA,0.0678
12,GGCCGGUAUGGUCCCAGCCUCCUCGCUGGCGCCGGCUGGGCAACAUUCCGAGCGGACCGUCCCCUCGGUAAUGGCGAAUGGGACCCA,1.12
13,GGCCGGUAUGGUCCCAGCCUCCUCGCUGGCGCCGGCUGGGCAACAUUCCGAGGGGACCCUCCCCUCGGUAAUGGCGAAUGGGACCCA,0.848
14,GGCCGGUAUGGUCCCAGCCUCCACGCUGGCGCCGGCUGGGCAACAUUCCGAGGGGACCGUCCCCUCGGUAAUGGCGAAUGGGACCCA,0.923
15,GGCCGGUAUGGUCCCAGCCUCCCCGCUGGCGCCGGCUGGGCAACAUUCCGAGGGGACCGUCCCCUCGGUAAUGGCGAAUGGGACCCA,0.516
16,GGCCGGUAUGGUCCCAGCCUCCUCGCUGGCGCCGGCUGGGCAACAUUCCGAGGGGACCGUCCCCUCCGUAAUGGCGAAUGGGACCCA,0.529
